Changes are numbered by the printed parent chain.
How the values were obtained:
Assay in all cases: co-IP; Flag-tagged CTR-CNGA1 (wild type or mutant) and Myc-tagged RA domains co-expressed in HEK-293T cells; reciprocal immunoprecipitation with anti-Flag or anti-Myc antibodies (IgG as control), immunoblot, densitometry
Conditions in all cases: partners not purified
CTR-CNGA1 (D577,578 N) = target: T1, CTR-CNGA1 (D577,578 N) (UniProt Q00194 483-690, D577,578 N | D577,578 N)
T1 construct: CNGA1 C-terminal region, residues 483-690, with D577N and D578N; Mutant of m1 made by site-directed mutagenesis; source: HEK-293T, transfected (pCDNA3), in lysate; not shown: FLAG, N-terminal, kept
T1 sequence (looked up): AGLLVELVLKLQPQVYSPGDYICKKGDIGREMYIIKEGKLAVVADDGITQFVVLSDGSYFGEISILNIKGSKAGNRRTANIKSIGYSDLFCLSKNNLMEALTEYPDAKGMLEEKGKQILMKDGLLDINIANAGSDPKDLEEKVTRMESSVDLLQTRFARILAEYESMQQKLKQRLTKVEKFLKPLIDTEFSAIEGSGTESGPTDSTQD

CTR-CNGA1 (D577N) = target: T2, CTR-CNGA1 (D577N) (UniProt Q00194 483-690, D577N)
T2 construct: CNGA1 C-terminal region, residues 483-690, with D577N; Mutant of m1 made by site-directed mutagenesis; source: HEK-293T, transfected (pCDNA3), in lysate; not shown: FLAG, N-terminal, kept
T2 sequence (looked up): T1 sequence (looked up) with N96D

CTR-CNGA1 (E581Q) = target: T3, CTR-CNGA1 (E581Q) (UniProt Q00194 483-690, E581Q)
T3 construct: CNGA1 C-terminal region, residues 483-690, with E581Q; Mutant of m1 made by site-directed mutagenesis; source: HEK-293T, transfected (pCDNA3), in lysate; not shown: FLAG, N-terminal, kept
T3 sequence (looked up): T1 sequence (looked up) with N95D, N96D, E99Q

B1: Myc-tagged RA domain of PI3Kγ (residues 141-311) (domain or fragment, UniProt P48736 141-311, looked up)
chain: HPPSEESQAFQRQLTALIGYDVTDVSNVHDDELEFTRRGLVTPRMAEVASRDPKLYAMHPWVTSKPLPEYLWKKIANNCIFIVIHRSTTSQTIKVSPDDTPGAILQSFFTKMAKKKSLMDIPESQSEQDFVLRVCGRDEYLVGETPIKNFQWVRHCLKNGEEIHVVLDTPP
notes: also called RA-PI3Kγ; PI3Kγ-RA; source: HEK-293T, transfected (pCDNA3), in lysate
Q: With B1 as the binder, how does the “percent disruption of the interaction against wild type” value (shortened to “percent disruption of the interaction”) (CTR-CNGA1 (D577,578 N)) read?
A: 45 percent

Q: And the “percent disruption of the interaction” value (CTR-CNGA1 (D577N))?
A: 30 percent

Q: And the “percent disruption of the interaction” value (CTR-CNGA1 (E581Q))?
A: 50 percent

— PMC4326362, “Non-canonical regulation of phosphatidylinositol 3-kinase gamma isoform activity in retinal rod photoreceptor cells” (Cell Communication and Signaling : CCS, 2015)
